# Source: FireProtDB (doi:10.1021/bi9815243)
# B1: Guanyl-specific ribonuclease T1 wild type, P00651 (protein)
# chain: MMYSKLLTLTTLLLPTALALPSLVERACDYTCGSNCYSSSDVSTAQAAGYQLHEDGETVGSNSYPHKYNNYEGFDFSVSSPYYEWPILSSGDVYSGGSPGADRVVFNENNQLAGVITHTGASGNNFVECT
# B2: Guanyl-specific ribonuclease Sa wild type, P05798 (protein)
# chain: DVSGTVCLSALPPEATDTLNLIASDGPFPYSQDGVVFQNRESVLPTQSYGYYHEYTVITPGARTRGTRRIITGEATQEDYYTGDHYATFSLIDQTC
# Details: Aspergillus oryzae (strain ATCC 42149 / RIB 40); pH 2.7; 25 °C; Urea; CD; glycine 30 mM; reversible: yes (>95%); whole UniProt chain shown
Protein,denaturant m value [kcal/mol/M],denaturant midpoint (higher = more stable) [M],unfolding free energy [kcal/mol]
B1,1.64,3.75,6.13

# Same assay, conditions: Aspergillus oryzae (strain ATCC 42149 / RIB 40); pH 2.7; 25 °C; Urea; Fluorescence; glycine 30 mM; transition: 2; reversible: Yes; whole UniProt chain shown
Protein,denaturant m value [kcal/mol/M],denaturant midpoint (higher = more stable) [M],unfolding free energy [kcal/mol]
B1,1.64,3.75,6.13

# Same assay, conditions: Aspergillus oryzae (strain ATCC 42149 / RIB 40); pH 7; 25 °C; Urea; CD; MOPS 30 mM; reversible: yes (>95%); whole UniProt chain shown
Protein,denaturant m value [kcal/mol/M],denaturant midpoint (higher = more stable) [M],unfolding free energy [kcal/mol]
B1,1.17,5.2,6.09

# Same assay, conditions: Aspergillus oryzae (strain ATCC 42149 / RIB 40); pH 7; 25 °C; Urea; Fluorescence; MOPS 30 mM; transition: 2; reversible: Yes; whole UniProt chain shown
Protein,denaturant m value [kcal/mol/M],denaturant midpoint (higher = more stable) [M],unfolding free energy [kcal/mol]
B1,1.17,5.2,6.09

# Same assay, conditions: Aspergillus oryzae (strain ATCC 42149 / RIB 40); pH 7; Thermal; CD; MOPS 30 mM; reversible: yes (>95%); whole UniProt chain shown
Protein,Tm [°C],unfolding enthalpy (van 't Hoff) [kcal/mol]
B1,50.8,96.6

# Same assay, conditions: Aspergillus oryzae (strain ATCC 42149 / RIB 40); pH 7; Thermal; CD; MOPS 30 mM; transition: 2; reversible: Yes; whole UniProt chain shown
Protein,Tm [°C],unfolding enthalpy (van 't Hoff) [kcal/mol]
B1,50.8,96.6

# Same assay, conditions: Kitasatospora aureofaciens; pH 2; Thermal; CD; MOPS 30 mM; transition: 2; reversible: Yes; whole UniProt chain shown
Protein,Tm [°C],unfolding enthalpy (van 't Hoff) [kcal/mol]
B2,28,58.8

# Same assay, conditions: Kitasatospora aureofaciens; pH 7; Thermal; CD; MOPS 30 mM; reversible: yes (>95%); whole UniProt chain shown
Protein,Tm [°C],unfolding enthalpy (van 't Hoff) [kcal/mol]
B2,48.4,92.4

# Same assay, conditions: Kitasatospora aureofaciens; pH 7; Thermal; CD; MOPS 30 mM; transition: 2; reversible: Yes; whole UniProt chain shown
Protein,Tm [°C],unfolding enthalpy (van 't Hoff) [kcal/mol]
B2,48.4,92.4
